Data: patent US20260234223A1

Molecular target: SARS-CoV-2 Delta Spike antigen (SARS-CoV-2 Delta)

| Substance | EC50 [nM] |
| --- | --- |
| Anti-S1 mAb ImdevimAb (antibody) | 0.01 |
| Anti-S1 antibody DZIF-10c | 6.9 |
